Assay [1] addresses T1, human IL-12 (human, UniProt P29460 23-328; P29459 23-219).
T1 construct: Recombinant (Peprotech); FLAG-tagged IL-12 in the flow cytometry assays, biotinylated in the IL-12Rβ2 assay; also called hIL-12
T1 sequence 1: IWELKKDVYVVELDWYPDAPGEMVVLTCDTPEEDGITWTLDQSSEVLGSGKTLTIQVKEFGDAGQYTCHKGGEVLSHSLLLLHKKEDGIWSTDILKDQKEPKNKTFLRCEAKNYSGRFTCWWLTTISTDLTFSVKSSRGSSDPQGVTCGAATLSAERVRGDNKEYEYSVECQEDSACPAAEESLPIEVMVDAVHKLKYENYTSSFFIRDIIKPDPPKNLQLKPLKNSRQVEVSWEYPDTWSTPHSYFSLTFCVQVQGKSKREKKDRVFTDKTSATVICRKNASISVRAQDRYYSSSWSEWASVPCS
T1 sequence 2: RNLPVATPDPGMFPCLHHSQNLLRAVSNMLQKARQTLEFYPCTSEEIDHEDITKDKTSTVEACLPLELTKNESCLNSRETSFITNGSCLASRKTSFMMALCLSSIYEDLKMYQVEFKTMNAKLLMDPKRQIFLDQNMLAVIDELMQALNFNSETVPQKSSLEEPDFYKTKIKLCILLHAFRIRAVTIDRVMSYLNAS
Nature of the assay: ELISA, coated IL-12. An outline of the steps: (§1)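 Each value is an absorbance measuring binding. Plates (Maxisorp) carried cytokine coated at 1 μg/mL in carbonate buffer pH 9.6 overnight at 4° C, were blocked with 1% BSA in PBS for 1 hour at 25° C, and received antibody titrations for 1 hour at 25° C. Detection used goat anti-human IgG or anti-murine immunoglobulin HRP at 1:2000 for 1 hour, then TMB stopped with 1M HCl, with absorbance taken at 450 nm (reference 620 nm).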
For orientation: In an ELISA, binding on a coated surface is turned into a signal by an enzyme label.

Assay [2] deals with T2, human IL-23 (human, UniProt P29460 23-328; Q9NPF7 20-189).
T2 construct: Recombinant (Ebioscience); HIS-tagged in flow cytometry, biotinylated in some assays; also called hIL-23; rhIL-23
T2 sequence 1: T1 sequence 1
T2 sequence 2: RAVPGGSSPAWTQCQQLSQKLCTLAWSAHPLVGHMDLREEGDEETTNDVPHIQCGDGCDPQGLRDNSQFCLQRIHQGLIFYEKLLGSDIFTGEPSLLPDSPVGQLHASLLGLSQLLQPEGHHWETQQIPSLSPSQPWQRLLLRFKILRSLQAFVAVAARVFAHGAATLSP
Nature of the assay: ELISA, coated IL-23. Put shortly: as §1

The target of assay [3] is T1, human IL-12. Description: ELISA, coated IL-12. An outline of the steps: as §1
The source holds these as a separate data set.

In assay [4] the target is T2, human IL-23. Description: ELISA, coated IL-23. Put shortly: as §1
This is another data set of the same source.

Numbering of substitutions follows the chain as printed. Read-outs that look alike come from different tables or passages of the source.

B1: Antibody 60 (antibody, human IgG1, kappa, V domains shown)
VH: EVQLVQSGAEVKKPGATVKISCKASGYTFSDYYLHWVRQRPEKGLEWMGWIDPENGDTEYAPKFQGKVTITADTSTDTGYLELSSLRSEDTAVYYCAANKELRYFDVWGQGTLVTVSS
VL: DIQMTQSPSSVSASVGDRVTITCRASQSISINLHWYQQKPGKAPKLLIKFASQSISGVPSRFSGSGSGTDFSLTINSLQPEDFATYYCQQSNSFPLTFGGGTKVEIKR
In the case of B1, the binding result in assay [1] and in assay [2] was “binds” each time.

B2: Antibody 65 (antibody, human IgG1, kappa, V domains shown)
VH: B1 VH
VL: B1 VL with K49Y, S65Y
B2: the binding result in assay [1] and in assay [2] was “binds” throughout.

B3: Antibody 142 (antibody, human IgG1, kappa, V domains shown)
VH: B1 VH with R40A, K67R
VL: B1 VL with P40S, K49Y, T85R
Take B3: the binding result in assay [3] and in assay [4] was “binds” throughout.

B4: Antibody 70 (antibody, human IgG1, kappa, V domains shown)
VH: B1 VH
VL: B1 VL with K49Y, T85R
Regarding B4, the binding result in assay [1] and in assay [2] was “binds” each time.

B5: Antibody 61 (antibody, human IgG1, kappa, V domains shown)
VH: B1 VH with R40A, E42G, K67R
VL: B1 VL with K49Y, S65Y
On to B5, for which the binding result in assay [1] and in assay [2] was “binds” in each case.

B6: Antibody 146 (antibody, human IgG1, kappa, V domains shown)
VH: B1 VH with R40A, K67R
VL: B1 VL with K49Y, V58I, T85R
For B6, the binding result in assay [3] and in assay [4] was “binds” each time.

B7: Antibody 62 (antibody, human IgG1, kappa, V domains shown)
VH: B1 VH with E42G, K67R
VL: B1 VL with K49Y, S65Y
As for B7, the binding result in assay [1] and in assay [2] was “binds” each time.

B8: Antibody 137 (antibody, human IgG1, kappa, V domains shown)
VH: B1 VH with R40A, K67R
VL: B1 VL with K49Y, Y87F
As to B8, the binding result in assay [3] and in assay [4] was “binds” in each case.

B9: Antibody 73 (antibody, human IgG1, kappa, V domains shown)
VH: B1 VH with R40A, K67R
VL: B1 VL with S65Y, T85R
As to B9, the binding result in assay [1] and in assay [2] was “binds” each time.

B10: Antibody 147 (antibody, human IgG1, kappa, V domains shown)
VH: B1 VH with R40A, K67R
VL: B1 VL with K49Y, P80T, T85R
On to B10, for which the binding result in assay [3] and in assay [4] was “binds” throughout.

B11: Antibody 75 (antibody, human IgG1, kappa, V domains shown)
VH: B1 VH
VL: B1 VL with S65Y, T85R
Take B11: the binding result in assay [1] and in assay [2] was “binds” in each case.

B12: Antibody 67 (antibody, human IgG1, kappa, V domains shown)
VH: B1 VH with E42G, K67R
VL: B1 VL with K49Y, T85R
Regarding B12, the binding result in assay [1] and in assay [2] was “binds” in each case.

B13: Antibody 64 (antibody, human IgG1, kappa, V domains shown)
VH: B1 VH with R40A, E42G
VL: B1 VL with K49Y, S65Y
With B13, the binding result in assay [1] and in assay [2] was “binds” throughout.

B14: Antibody 144 (antibody, human IgG1, kappa, V domains shown)
VH: B1 VH with R40A, K67R
VL: B1 VL with K42E, K49Y, T85R
B14: the binding result in assay [3] and in assay [4] was “binds” each time.

B15: Antibody 66 (antibody, human IgG1, kappa, V domains shown)
VH: B1 VH with R40A, E42G, K67R
VL: B1 VL with K49Y, T85R
Take B15: the binding result in assay [1] and in assay [2] was “binds” each time.

B16: Antibody 145 (antibody, human IgG1, kappa, V domains shown)
VH: B1 VH with R40A, K67R
VL: B1 VL with A43S, K49Y, T85R
As to B16, the binding result in assay [3] and in assay [4] was “binds” in each case.

B17: Antibody 148 (antibody, human IgG1, kappa, V domains shown)
VH: B1 VH with R40A, K67R
VL: B1 VL with K49Y, T85R, Y87F
Regarding B17, the binding result in assay [3] and in assay [4] was “binds” in each case.

B18: Antibody 69 (antibody, human IgG1, kappa, V domains shown)
VH: B1 VH with R40A, E42G
VL: B1 VL with K49Y, T85R
On to B18, for which the binding result in assay [1] and in assay [2] was “binds” throughout.

B19: Antibody 74 (antibody, human IgG1, kappa, V domains shown)
VH: B1 VH with R40A, E42G
VL: B1 VL with S65Y, T85R
As for B19, the binding result in assay [1] and in assay [2] was “binds” each time.

B20: Antibody 141 (antibody, human IgG1, kappa)
heavy chain: not shown
light chain: DIQMTQSPSSVSASPGDRVTITCRASQSISINLHWYQQKPGKAPKLLIYFASQSISGVPSRFSGSGSGTDFSLTINSLQPEDFARYYCQQSNSFPLTFGGGTKVEIKRTVAAPSVFIFPPSDEQLKSGTASVVCLLNNFYPREAKVQWKVDNALQSGNSQESVTEQDSKDSTYSLSSTLTLSKADYEKHKVYACEVTHQGLSSPVTKSFNRGEC
Regarding B20, the binding result in assay [3] and in assay [4] was “binds” throughout.

B21: Antibody 140 (antibody, human IgG1, kappa)
heavy: not shown
light: B20 light chain with S14T, P15V
B21: the binding result in assay [3] and in assay [4] was “binds” in each case.

B22: Antibody 134 (antibody, human IgG1, kappa, V domains shown)
VH: B1 VH with R40A, K67R
VL: B1 VL with A43S, K49Y
B22: the binding result in assay [3] and in assay [4] was “binds” throughout.

B23: Antibody 71 (antibody, human IgG1, kappa, V domains shown)
VH: B1 VH with R40A, E42G, K67R
VL: B1 VL with S65Y, T85R
For B23, the binding result in assay [1] and in assay [2] was “binds” each time.

B24: Antibody 135 (antibody, human IgG1, kappa, V domains shown)
VH: B1 VH with R40A, K67R
VL: B1 VL with K49Y, V58I
For the molecule B24, the binding result in assay [3] and in assay [4] was “binds” each time.

B25: Antibody 63 (antibody, human IgG1, kappa, V domains shown)
VH: B1 VH with R40A, K67R
VL: B1 VL with K49Y, S65Y
For B25, the binding result in assay [1] and in assay [2] was “binds” throughout.

B26: Antibody 143 (antibody, human IgG1, kappa, V domains shown)
VH: B1 VH with R40A, K67R
VL: B1 VL with G41H, K49Y, T85R
In the case of B26, the binding result in assay [3] and in assay [4] was “binds” in each case.

B27: Antibody 72 (antibody, human IgG1, kappa, V domains shown)
VH: B1 VH with E42G, K67R
VL: B1 VL with S65Y, T85R
B27: the binding result in assay [1] and in assay [2] was “binds” in each case.

These data come from patent publication US20110262445A1 (CEPHALON AUSTRALIA, published 2011).
